Test results reported in patent US20260139049A1 (PEDIATRIC IMMUNITY AND HEALTHCARE GUANGZHOU BIOTECHNOLOGY, published 2026).
Like-named read-outs stand apart in the source and are kept apart here.

Columns and labels:
human CLDN6 [1] = biological target: T1, human CLDN6 (human, UniProt P56747 1-220); assay: FACS on CLDN6 cells (same value as Table 3, HEK293T-CLDN6)
T1 construct: whole, on cells; four-transmembrane protein; also called claudin-6; HEK293T-CLDN6
T1 sequence (looked up): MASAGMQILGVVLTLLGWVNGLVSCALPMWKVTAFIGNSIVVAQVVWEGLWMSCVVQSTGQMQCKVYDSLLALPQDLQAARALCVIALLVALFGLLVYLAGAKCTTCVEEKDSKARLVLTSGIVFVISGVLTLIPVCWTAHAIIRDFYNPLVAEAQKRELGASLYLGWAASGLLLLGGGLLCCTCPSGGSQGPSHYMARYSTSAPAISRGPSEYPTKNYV

human CLDN6 [2] = biological target: T1, human CLDN6; assay: FACS on HEK293T-CLDN6 cells
Experimental: (§1) To detect a binding capacity of a chimeric or humanized antibody to CLDN6, a CLDN6-expressing cell line HEK293T-CLDN6 and a CLDN6-negative control cell line HEK293T were washed three times with PBS. 1×10⁵ test cells and 50 μL of an antibody solution to be tested were added to a 96-well plate, and incubated at 4° C. for 1 h. The cells were then washed three times with PBS. […] Finally, cells were washed three times with PBS, and signals were read using FACS.
(§2) An EC50 value (a concentration of an antibody that binds to half of binding sites at equilibrium) is calculated through nonlinear regression.

human CLDN3 = biological target: T2, human CLDN3 (human, UniProt O15551 1-220); assay: FACS on 293T-CLDN3 cells, 10 µg/mL
T2 construct: whole, on cells; also called HEK293T-CLDN3
T2 sequence (looked up): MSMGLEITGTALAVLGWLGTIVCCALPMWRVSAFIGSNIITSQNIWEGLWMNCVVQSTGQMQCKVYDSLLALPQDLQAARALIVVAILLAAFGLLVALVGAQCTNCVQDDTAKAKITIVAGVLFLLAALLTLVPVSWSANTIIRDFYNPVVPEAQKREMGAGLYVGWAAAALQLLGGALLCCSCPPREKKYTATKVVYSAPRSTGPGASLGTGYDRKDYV
Experimental: (§3) 50 μL of an antibody to be tested was added to a 96-well plate, then 1× 10⁵ cells were added to each well, and incubation was conducted at 4° C. for 1 h. Cells were washed three times with PBS. […] Finally, cells were washed three times with PBS, and signals were read using FACS. Binding capacities of the antibody to CLDN9, CLDN3, and CLDN4 were analyzed separately based on detection data.

human CLDN6 [3] = biological target: T1, human CLDN6; assay: FACS on HEK293T-CLDN6 cells; remark: listed apart in the source
Experimental: as §1, §2

human CLDN6 [4] = biological target: T1, human CLDN6; assay: FACS on HepG2 tumour cells; target on the cells taken as CLDN6
human CLDN6 [5] = biological target: T1, human CLDN6; assay: as above; remark: listed apart in the source
Experimental: as §3, with “1×10⁵” for “1× 10⁵”, “A binding capacity” for “Binding capacities”, “each tumor cell was” for “CLDN9, CLDN3, and CLDN4 were”, “analyzed” for “analyzed separately”

human CLDN6 [6] = biological target: T1, human CLDN6; assay: FACS on PA-1 tumour cells; target on the cells taken as CLDN6
Experimental: as §3, with “1×10⁵” for “1× 10⁵”, “A binding capacity” for “Binding capacities”, “each tumor cell was” for “CLDN9, CLDN3, and CLDN4 were”, “analyzed” for “analyzed separately”

human CLDN6 [7] = biological target: T1, human CLDN6; assay: FACS on 293T-CLDN6 cells, 10 µg/mL
human CLDN6 [8] = biological target: T1, human CLDN6; assay: FACS on HepG2 tumour cells; target on the cells taken as CLDN6; remark: listed apart in the source
Experimental: as §3, with “1×10⁵” for “1× 10⁵”, “A binding capacity” for “Binding capacities”, “each tumor cell was” for “CLDN9, CLDN3, and CLDN4 were”, “analyzed” for “analyzed separately”

human CLDN6 [9] = biological target: T1, human CLDN6; assay: as above; remark: listed apart in the source
Experimental: as §3, with “1×10⁵” for “1× 10⁵”, “A binding capacity” for “Binding capacities”, “each tumor cell was” for “CLDN9, CLDN3, and CLDN4 were”, “analyzed” for “analyzed separately”

mouse CLDN6 = biological target: T3, mouse CLDN6 (mouse, UniProt Q9Z262 1-219); assay: FACS on CHO-K1-Mouse CLDN6 cells
T3 construct: whole, on cells; also called CHO-K1-Mouse CLDN6
T3 sequence (looked up): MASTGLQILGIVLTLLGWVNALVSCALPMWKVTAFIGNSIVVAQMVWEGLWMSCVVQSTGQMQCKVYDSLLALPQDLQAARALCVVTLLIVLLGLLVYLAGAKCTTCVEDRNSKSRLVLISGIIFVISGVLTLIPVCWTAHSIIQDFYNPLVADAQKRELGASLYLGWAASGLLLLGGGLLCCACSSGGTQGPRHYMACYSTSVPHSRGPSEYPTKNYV

human CLDN6 [10] = biological target: T1, human CLDN6; assay: FACS on PA-1 tumour cells; target on the cells taken as CLDN6; remark: listed apart in the source
Experimental: as §3, with “1×10⁵” for “1× 10⁵”, “A binding capacity” for “Binding capacities”, “each tumor cell was” for “CLDN9, CLDN3, and CLDN4 were”, “analyzed” for “analyzed separately”

human CLDN6 [11] = biological target: T1, human CLDN6; assay: as above; remark: listed apart in the source
Experimental: as §3, with “1×10⁵” for “1× 10⁵”, “A binding capacity” for “Binding capacities”, “each tumor cell was” for “CLDN9, CLDN3, and CLDN4 were”, “analyzed” for “analyzed separately”

human CLDN6 [12] = biological target: T1, human CLDN6; assay: as above; remark: listed apart in the source
human CLDN6 [13] = biological target: T1, human CLDN6; assay: FACS on HEK293T-CLDN6 cells; remark: listed apart in the source
[14] = biological target: T4, monkey CLDN6 (Cyno CLDN6) (monkey (Cyno)); assay: FACS on CHO-K1-Cyno CLDN6 cells
T4 construct: whole, on cells; also called CHO-K1-Cyno CLDN6

human CLDN6 [15] = biological target: T1, human CLDN6; assay: FACS on HEK293T-CLDN6 cells; remark: listed apart in the source
Experimental: as §1, §2

human CLDN6 [16] = biological target: T1, human CLDN6; assay: FACS on HepG2 tumour cells; target on the cells taken as CLDN6; remark: listed apart in the source
Experimental: as §3, with “1×10⁵” for “1× 10⁵”, “A binding capacity” for “Binding capacities”, “each tumor cell was” for “CLDN9, CLDN3, and CLDN4 were”, “analyzed” for “analyzed separately”

human CLDN6 [17] = biological target: T1, human CLDN6; assay: FACS on 293T-CLDN6 cells, 10 µg/mL; remark: listed apart in the source

EC50 (human CLDN6 [1]): 0.213 µg/mL | EC50 (human CLDN6 [2]): 0.282 µg/mL | Geom.Mean (human CLDN3): 151 | EC50 (human CLDN6 [3]): 0.0469 µg/mL | EC50 (human CLDN6 [4]): 0.192 µg/mL | EC50 (human CLDN6 [5]): 0.242 µg/mL | EC50 (human CLDN6 [6]): 0.141 µg/mL | Geom.Mean (human CLDN6 [7]): 23600 | EC50 (human CLDN6 [8]): 0.583 µg/mL | EC50 (human CLDN6 [9]): 0.515 µg/mL | EC50 (mouse CLDN6): 0.181 µg/mL | EC50 (human CLDN6 [10]): 0.141 µg/mL | EC50 (human CLDN6 [11]): 0.223 µg/mL | EC50 (human CLDN6 [12]): 0.0741 µg/mL | EC50 (human CLDN6 [13]): 0.0727 µg/mL | EC50 [14]: 0.131 µg/mL | EC50 (human CLDN6 [15]): 0.0461 µg/mL | EC50 (human CLDN6 [16]): 0.959 µg/mL | Geom.Mean (human CLDN6 [17]): 44300
B1: IMAB027 (antibody, human IgG1, kappa, V domains shown)
VH: EVQLQQSGPELVKPGASMKISCKASGYSFTGYTMNWVKQSHGKNLEWIGLINPYNGGTIYNQKFKGKATLTVDKSSSTAYMELLSLTSEDSAVYYCARDYGFVLDYWGQGTTLTVSS
VL: IVLTQSPAIMSASPGEKVTITCSASSSVSYLHWFQQKPGTSPKLWVYSTSNLPSGVPARFGGSGSGTSYSLTISRMEAEDAATYYCQQRSIYPPWTFGGGTKLEIKR
notes: variable regions of mAb206-LCC on human IgG1 constant regions; also called benchmark antibody; control antibody
